These results are taken from patent US20210024639A1 (AGOMAB THERAPEUTICS, published 2021).

Bounds are passed on as bounds.

Assay [1] concerns the target T1, native mouse MET on living mouse cells (mouse, UniProt P16056 25-1379). Put plainly: cell-based or functional assay.
The target of assay [2] is T2, native human MET on living human cells (human, UniProt P08581 25-1390). Put plainly: cell-based or functional assay.
Assay [3] has as its target T2, native human MET on living human cells. Kind of assay: flow cytometry, A549 cells. As to the method:
(§1) We also analysed whether chimeric anti-MET antibodies bound to native human and mouse MET in living cells. […] Antibody binding to cells was analysed by flow cytometry using phycoerythrin-conjugated anti-human IgG1 antibodies (eBioscience) and a CyAn ADP analyser (Beckman Coulter). As a positive control for human MET binding, we used a commercial mouse anti-human MET antibody (R&D Systems) and phycoerythrin-conjugated anti-mouse IgG1 antibodies (eBioscience). As a positive control for mouse MET binding we used a commercial goat anti-mouse MET antibody (R&D Systems) and phycoerythrin-conjugated anti-goat IgG1 antibodies (eBioscience). […] Consistent with the data obtained in ELISA, maximal binding (EMAX) varied depending on antibody, but was similar in human and mouse cells.

The target in assay [4] is T3, human MET-Fc chimeric protein (R&D Systems) (human, UniProt P08581 25-932).
T3 construct: extracellular domain; bought (R&D Systems); also called hMET; not shown: Fc portion of human IgG1
T3 sequence (P08581 25-932, change not shown): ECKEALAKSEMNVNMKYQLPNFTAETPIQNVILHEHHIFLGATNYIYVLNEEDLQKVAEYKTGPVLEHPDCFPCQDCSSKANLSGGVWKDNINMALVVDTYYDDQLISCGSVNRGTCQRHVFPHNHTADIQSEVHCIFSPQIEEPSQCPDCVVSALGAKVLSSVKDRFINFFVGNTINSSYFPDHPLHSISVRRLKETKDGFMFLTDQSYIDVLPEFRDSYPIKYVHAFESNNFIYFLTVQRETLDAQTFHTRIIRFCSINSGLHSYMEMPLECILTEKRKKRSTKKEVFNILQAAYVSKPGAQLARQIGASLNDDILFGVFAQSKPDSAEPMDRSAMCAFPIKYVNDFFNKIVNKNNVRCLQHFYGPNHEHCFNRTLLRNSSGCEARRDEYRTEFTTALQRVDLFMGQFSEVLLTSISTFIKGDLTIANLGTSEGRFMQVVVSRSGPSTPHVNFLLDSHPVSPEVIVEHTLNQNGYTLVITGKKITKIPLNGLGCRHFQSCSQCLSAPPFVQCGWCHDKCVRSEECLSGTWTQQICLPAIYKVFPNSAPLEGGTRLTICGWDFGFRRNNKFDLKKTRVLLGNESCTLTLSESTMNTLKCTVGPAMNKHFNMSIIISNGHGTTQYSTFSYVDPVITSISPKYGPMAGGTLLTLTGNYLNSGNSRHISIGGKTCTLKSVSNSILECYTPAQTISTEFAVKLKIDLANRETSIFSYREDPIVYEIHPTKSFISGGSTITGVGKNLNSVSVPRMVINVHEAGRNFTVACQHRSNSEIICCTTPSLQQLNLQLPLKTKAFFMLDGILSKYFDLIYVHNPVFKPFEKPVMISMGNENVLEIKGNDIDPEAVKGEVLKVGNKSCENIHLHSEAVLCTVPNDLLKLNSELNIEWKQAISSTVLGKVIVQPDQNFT
Kind of assay: competition ELISA, hMET-Fc in solid phase, competitor 0.3 nM biotinylated hHGF. On the procedure:
(§2) To investigate along this line, we tested the competition between mAbs and HGF by ELISA. Recombinant human and mouse HGF (R&D Systems) were biotinylated at the N-terminus using NHS-LC-biotin (Thermo Scientific). MET-Fc protein, either human or mouse (R&D Systems), was immobilized in solid phase and then exposed to 0.3 nM biotinylated HGF, either human or mouse, in the presence of increasing concentrations of antibodies (0-120 nM).
(§3) A MET-Fc chimeric protein (either human or mouse) was immobilized in solid phase and exposed to a fixed concentration of biotinylated HGF (either human or mouse), in the presence of increasing concentrations of antibodies. […] Antibody-HGF competition is expressed as IC₅₀ (the concentration that achieves 50% competition) and IMAX (the maximum % competition reached at saturation).

The target of assay [5] is T1, native mouse MET on living mouse cells. Kind of assay: cell-based or functional assay. The source holds these as a separate data set.
Assay [6] concerns the target T2, native human MET on living human cells. Kind of assay: cell-based or functional assay. The source holds these as a separate data set.
Assay [7] concerns the target T4, mouse MET-Fc chimeric protein (R&D Systems) (mouse, UniProt P16056 25-929, limits assumed).
T4 construct: bought (R&D Systems); also called mMET; not shown: Fc
Put plainly: competition ELISA, mMET-Fc in solid phase, competitor 0.3 nM biotinylated mHGF. As to the method: as §2, §3

Assay [8] concerns the target T1, native mouse MET on living mouse cells. Put plainly: flow cytometry, MLP29 cells. On the procedure:
as §1

Assay [9] has as its target T5, human MET extracellular domain (ECD) (human, UniProt P08581 25-932).
T5 construct: range 1-932; recombinant ECD; also called hMET; human MET ECD
Put plainly: ELISA, periplasmic Fab on MET ECD. On the procedure: Fab-expressing phages from the libraries described above were produced according to standard phage display protocols. For selection, phages were first adsorbed to immobilized recombinant human MET ECD, washed, and then eluted using trypsin. After two cycles of selection with human MET ECD, two other cycles were performed in the same fashion using mouse MET ECD. In parallel, we also selected phages alternating a human MET ECD cycle with a mouse MET ECD cycle, for a total of four cycles. Phages selected by the two approaches were pooled together and then used to infect TG1 E. coli. Individual colonies were isolated and secretion of Fabs was induced using IPTG (Fermentas). The Fab-containing periplasmic fraction of bacteria was collected and tested for its ability to bind human and mouse MET ECD by Surface Plasmon Resonance (SPR). Human or mouse MET ECD was immobilized on a CM-5 chip using amine coupling in sodium acetate buffer (GE Healthcare). The Fab-containing periplasmic extracts were loaded into a BIACORE 3000 apparatus (GE Healthcare) with a flow rate of 30 μl/min. The Fab off-rates (koff) were measured over a two minute period. Binding of Fabs to human and mouse MET was further characterized by ELISA using MET ECD in solid phase and periplasmic crude extract in solution.
TABLE 7 Fabs binding to both human MET (hMET) and mouse MET (mMET). Fabs are grouped in families based on their VH CDR3 sequence. Binding of Fabs to human and mouse MET ECD was determined by Surface Plasmon Resonance (SPR) and by ELISA. SPR values represent the koff (s⁻¹). ELISA values represent the Optical Density (OD) at 450 nm (AU, arbitrary units). Both SPR and ELISA were performed using crude periplasmic extracts. Fab concentration in the extract was not determined. Values are the mean of three independent measurements.

T2 sequence (P08581 25-1390): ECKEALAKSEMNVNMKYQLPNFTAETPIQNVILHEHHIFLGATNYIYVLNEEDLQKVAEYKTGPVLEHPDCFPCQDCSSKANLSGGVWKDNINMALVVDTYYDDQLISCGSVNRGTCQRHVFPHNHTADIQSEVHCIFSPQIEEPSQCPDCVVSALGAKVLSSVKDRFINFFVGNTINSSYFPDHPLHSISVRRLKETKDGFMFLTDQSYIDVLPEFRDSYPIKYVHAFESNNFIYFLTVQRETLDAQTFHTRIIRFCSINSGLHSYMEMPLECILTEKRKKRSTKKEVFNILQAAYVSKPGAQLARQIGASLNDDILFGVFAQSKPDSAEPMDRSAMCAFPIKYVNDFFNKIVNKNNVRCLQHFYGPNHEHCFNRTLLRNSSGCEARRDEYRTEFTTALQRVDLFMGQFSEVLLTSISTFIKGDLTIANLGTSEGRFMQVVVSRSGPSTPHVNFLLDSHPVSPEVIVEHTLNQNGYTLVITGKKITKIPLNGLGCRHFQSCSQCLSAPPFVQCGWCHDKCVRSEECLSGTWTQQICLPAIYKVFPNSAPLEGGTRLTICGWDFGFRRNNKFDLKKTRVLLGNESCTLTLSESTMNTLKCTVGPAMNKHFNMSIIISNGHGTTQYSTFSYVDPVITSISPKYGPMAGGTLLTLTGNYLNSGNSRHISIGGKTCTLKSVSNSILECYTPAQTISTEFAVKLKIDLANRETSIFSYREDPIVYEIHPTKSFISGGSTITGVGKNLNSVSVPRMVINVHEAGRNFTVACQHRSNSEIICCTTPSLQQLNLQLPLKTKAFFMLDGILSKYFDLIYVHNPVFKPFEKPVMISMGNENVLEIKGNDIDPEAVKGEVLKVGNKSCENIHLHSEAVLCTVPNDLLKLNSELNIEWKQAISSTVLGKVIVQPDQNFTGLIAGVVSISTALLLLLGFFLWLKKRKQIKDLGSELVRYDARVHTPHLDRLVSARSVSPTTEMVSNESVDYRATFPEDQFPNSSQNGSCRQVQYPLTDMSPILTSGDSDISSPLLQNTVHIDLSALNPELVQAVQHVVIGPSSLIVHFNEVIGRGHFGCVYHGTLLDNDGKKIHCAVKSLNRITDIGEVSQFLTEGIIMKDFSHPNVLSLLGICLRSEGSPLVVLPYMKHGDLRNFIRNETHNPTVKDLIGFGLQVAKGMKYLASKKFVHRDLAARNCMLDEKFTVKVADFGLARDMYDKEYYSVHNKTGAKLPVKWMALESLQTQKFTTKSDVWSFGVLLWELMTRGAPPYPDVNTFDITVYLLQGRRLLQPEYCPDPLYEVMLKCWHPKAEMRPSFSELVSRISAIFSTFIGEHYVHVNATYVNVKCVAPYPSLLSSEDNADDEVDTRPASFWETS
T5 sequence (P08581 25-932 limits assumed, form in doubt): as the sequence (P08581 25-932, change not shown) above

B1: chimeric llama-human IgG1 mAb 76G7 (antibody, V domains shown)
VH: QVQLVESGGNLVQPGGSLRLSCAASGFTFSNYYMSWVRQAPGKGLEWVSDIYSDGSTTWYSDSVKGRFTISRDNAKNTLSLQMNSLKSEDTAVYYCARVKIYPGGYDAWGQGTQVTVSS
VL: QAGLTQPPSVSGSPGKTVTISCAGNSSDVGYGNYVSWYQQFPGMAPKLLIYLVNKRASGITDRFSGSKSGNTASLTISGLQSEDEADYYCASYTGSNNIVFGGGTHLTVL
On to B1, for which, in assay [1], the “cell scattering score, MLP29, 0.001 nM” value was 0 score 0-4; the “cell scattering score, MLP29, 0.004 nM” value amounted to 0 score 0-4; the “cell scattering score, MLP29, 0.012 nM” value was found to be 0 score 0-4; the “cell scattering score, MLP29, 0.037 nM” value came to 0 score 0-4. Further, in assay [1], the “cell scattering score, MLP29, 0.111 nM” value was 0 score 0-4; the “cell scattering score, MLP29, 0.333 nM” value is 0 score 0-4; the “cell scattering score, MLP29, 1.000 nM” value worked out at 1 score 0-4; the “cell scattering score, MLP29, 3.000 nM” value is 2 score 0-4. For the same molecule, the “cell scattering score, MLP29, 9.000 nM” value in assay [1] was found to be 3 score 0-4. For the same molecule, in assay [2], the “cell scattering score, HPAF-II, 0.001 nM” value came out at 0 score 0-4; the “cell scattering score, HPAF-II, 0.004 nM” value was 0 score 0-4; the “cell scattering score, HPAF-II, 0.012 nM” value was found to be 0 score 0-4; the “cell scattering score, HPAF-II, 0.037 nM” value is 0 score 0-4. For the same molecule, in assay [2], the “cell scattering score, HPAF-II, 0.111 nM” value worked out at 0 score 0-4; the “cell scattering score, HPAF-II, 0.333 nM” value turned out to be 0 score 0-4; the “cell scattering score, HPAF-II, 1.000 nM” value was determined as 1 score 0-4; the “cell scattering score, HPAF-II, 3.000 nM” value is 2 score 0-4. Also, the “cell scattering score, HPAF-II, 9.000 nM” value in assay [2] was determined as 3 score 0-4. The “EMAX (% relative to control)” value in assay [3] was determined as 121%. Further, the “IMAX (maximum % competition)” value in assay [4] was 69.4%. For the same molecule, in assay [5], the “protection from staurosporine, viability EC50, MLP29” value (shortened to “protection … viability EC50, MLP29”) was 30.1 nM and the “protection from staurosporine, viability EMAX, MLP29” value (“protection … viability EMAX, MLP29” below) was found to be 50.2%. In addition, in assay [6], the “protection from staurosporine, viability EC50, MCF10A” value is 25.4 nM and the “protection from staurosporine, viability EMAX, MCF10A” value stood at 51.9%. The “IMAX (maximum % competition)” value in assay [7] was 62.5%. Also, the “EMAX (% relative to control)” value in assay [8] amounted to 115%.

B2: chimeric llama-human IgG1 mAb 71G12 (antibody, V domains shown)
VH: QVQLQESGGDLVQPGGSLRVSCVVSGFTFSRYYMSWVRQAPGKGLEWVSSIDSYGYSTYYTDSVKGRFTISRDNAKNTLYLQMNSLKPEDTALYYCARAKTTWSYDYWGQGTQVTVSS
VL: EIVLTQSPSSVTASVGGKVTINCKSSQSVFIASNQKTYLNWYQQRPGQSPRLVISYASTRESGIPDRFSGSGSTTDFTLTISSVQPEDAAVYYCQQAYSHPTFGQGTKVELK
For the molecule B2, in assay [1], the “cell scattering score, MLP29, 0.001 nM” value turned out to be 0 score 0-4; the “cell scattering score, MLP29, 0.004 nM” value was 0 score 0-4; the “cell scattering score, MLP29, 0.012 nM” value amounted to 0 score 0-4; the “cell scattering score, MLP29, 0.037 nM” value was 0 score 0-4. In [1], the “cell scattering score, MLP29, 0.111 nM” value amounted to 0 score 0-4; the “cell scattering score, MLP29, 0.333 nM” value came out at 1 score 0-4; the “cell scattering score, MLP29, 1.000 nM” value was found to be 2 score 0-4; the “cell scattering score, MLP29, 3.000 nM” value was 2 score 0-4. Further, the “cell scattering score, MLP29, 9.000 nM” value in [1] was determined as 3 score 0-4. Also, in assay [2], the “cell scattering score, HPAF-II, 0.001 nM” value was determined as 0 score 0-4; the “cell scattering score, HPAF-II, 0.004 nM” value came to 0 score 0-4; the “cell scattering score, HPAF-II, 0.012 nM” value came out at 0 score 0-4; the “cell scattering score, HPAF-II, 0.037 nM” value turned out to be 0 score 0-4. Further, in assay [2], the “cell scattering score, HPAF-II, 0.111 nM” value was determined as 0 score 0-4; the “cell scattering score, HPAF-II, 0.333 nM” value stood at 1 score 0-4; the “cell scattering score, HPAF-II, 1.000 nM” value stood at 2 score 0-4; the “cell scattering score, HPAF-II, 3.000 nM” value amounted to 2 score 0-4. In addition, in [2], the “cell scattering score, HPAF-II, 9.000 nM” value was determined as 3 score 0-4. The “EMAX (% relative to control)” value in assay [3] came out at 110%. The “IMAX (maximum % competition)” value in assay [4] is 51.4%. Also, in [5], the “protection … viability EC50, MLP29” value is greater than 32 nM and the “protection … viability EMAX, MLP29” value worked out at 39.7%. In assay [6], the “protection from staurosporine, viability EC50, MCF10A” value is greater than 32 nM and the “protection from staurosporine, viability EMAX, MCF10A” value worked out at 39.4%. The “IMAX (maximum % competition)” value in assay [7] came to 50.7%. Moreover, in [8], the “EMAX (% relative to control)” value worked out at 121%.

B3: Fab 71G12 (Fab, V domains shown)
VH: QVQLQESGGDLVQPGGSLRVSCVVSGFTFSRYYMSWVRQAPGKGLEWVSSIDSYGYSTYYTDSVKGRFTISRDNAKNTLYLQMNSLKPEDTALYYCARAKTTWSYDYWGQGTQVTVSS
VL: EIVLTQSPSSVTASVGGKVTINCKSSQSVFIASNQKTYLNWYQQRPGQSPRLVISYASTRESGIPDRFSGSGSTTDFTLTISSVQPEDAAVYYCQQAYSHPTFGQGTKVELK
notes: llama Fab (VH-CH1, kappa VL-CL) with MYC flag, crude periplasmic extract
With B3, the “ELISA OD450” value in assay [9] is 0.45 AU.

B4: recombinant mouse HGF (R&D Systems) (ligand, UniProt Q08048 33-728, looked up)
chain: QKKRRNTLHEFKKSAKTTLTKEDPLLKIKTKKVNSADECANRCIRNRGFTFTCKAFVFDKSRKRCYWYPFNSMSSGVKKGFGHEFDLYENKDYIRNCIIGKGGSYKGTVSITKSGIKCQPWNSMIPHEHSFLPSSYRGKDLQENYCRNPRGEEGGPWCFTSNPEVRYEVCDIPQCSEVECMTCNGESYRGPMDHTESGKTCQRWDQQTPHRHKFLPERYPDKGFDDNYCRNPDGKPRPWCYTLDPDTPWEYCAIKTCAHSAVNETDVPMETTECIQGQGEGYRGTSNTIWNGIPCQRWDSQYPHKHDITPENFKCKDLRENYCRNPDGAESPWCFTTDPNIRVGYCSQIPKCDVSSGQDCYRGNGKNYMGNLSKTRSGLTCSMWDKNMEDLHRHIFWEPDASKLNKNYCRNPDDDAHGPWCYTGNPLIPWDYCPISRCEGDTTPTIVNLDHPVISCAKTKQLRVVNGIPTQTTVGWMVSLKYRNKHICGGSLIKESWVLTARQCFPARNKDLKDYEAWLGIHDVHERGEEKRKQILNISQLVYGPEGSDLVLLKLARPAILDNFVSTIDLPSYGCTIPEKTTCSIYGWGYTGLINADGLLRVAHLYIMGNEKCSQHHQGKVTLNESELCAGAEKIGSGPCEGDYGGPLICEQHKMRMVLGVIVPGRGCAIPNRPGIFVRVAYYAKWIHKVILTYKL
modifications: biotinylated at the N-terminus using NHS-LC-biotin in the competition ELISA only
B4: in assay [1], the “cell scattering score, MLP29, 0.001 nM” value is 0 score 0-4; the “cell scattering score, MLP29, 0.004 nM” value amounted to 1 score 0-4; the “cell scattering score, MLP29, 0.012 nM” value is 2 score 0-4; the “cell scattering score, MLP29, 0.037 nM” value amounted to 3 score 0-4. For the same molecule, in assay [1], the “cell scattering score, MLP29, 0.111 nM” value came out at 4 score 0-4; the “cell scattering score, MLP29, 0.333 nM” value was 4 score 0-4; the “cell scattering score, MLP29, 1.000 nM” value was determined as 4 score 0-4; the “cell scattering score, MLP29, 3.000 nM” value came out at 4 score 0-4. For the same molecule, the “cell scattering score, MLP29, 9.000 nM” value in [1] turned out to be 4 score 0-4. Further, in [5], the “protection … viability EC50, MLP29” value came to 5.35 nM and the “protection … viability EMAX, MLP29” value amounted to 58.6%.
